From patent US9187525B2, “Methods of treating ophthalmic diseases using NPR-B agonists” (Shire Orphan Therapies GmbH, dated 2015)
Numbered stars: 1 amine (or outer) side, 2 acyl side, 3 side chain; on linkers, the order of the positions; unused ones are H or OH. Square brackets hold non-standard residues; d marks the D form. * marks the point of attachment. cDR = (S)-2-((S)-3-(carboxymethyl)-2-oxopiperazin-1-yl)-5-guanidinopentanoic acid, N=C(N)NCCC[C@@H](C(=O)[*:2])N1CCN([*:1])[C@@H](CC(=O)[*:3])C1=O; Bhp = (2S,4R)-4-(benzyloxy)pyrrolidine-2-carboxylic acid, O=C([C@@H]1C[C@@H](OCc2ccccc2)CN1[*:1])[*:2]; ctb = (S)-2-amino-3-(tert-butylthio)propanoic acid, CC(C)(C)SC[C@@H](N[*:1])C(=O)[*:2]; Npl = (S)-4-methyl-2-(propylamino)pentanoic acid, CCCN([C@@H](CC(C)C)C(=O)[*:2])[*:1]; Sni = (S)-nipecotic acid, O=C([C@H]1CCCN([*:1])C1)[*:2]; Phe(4-Cl) = N[C@@H](Cc1ccc(Cl)cc1)C(=O)O; Phe(4-Me) = Cc1ccc(C[C@H](N)C(=O)O)cc1; Hyp = O=C(O)[C@@H]1C[C@@H](O)CN1; NMeF = CN[C@@H](Cc1ccccc1)C(=O)O; dAoc(2) = CCCCCC[C@@H](N)C(=O)O; Aoc(2) = CCCCCC[C@H](N)C(=O)O; NMeL = CN[C@@H](CC(C)C)C(=O)O; dNle = CCCC[C@@H](N)C(=O)O; dOrn = NCCC[C@@H](N)C(=O)O; dNva = CCC[C@@H](N)C(=O)O; dPip = O=C(O)[C@H]1CCCCN1; Octanoyl = CCCCCCCC(=O)*; Hexanoyl = CCCCCC(=O)*

T1: natriuretic peptide receptor-B (human)
T1 chain: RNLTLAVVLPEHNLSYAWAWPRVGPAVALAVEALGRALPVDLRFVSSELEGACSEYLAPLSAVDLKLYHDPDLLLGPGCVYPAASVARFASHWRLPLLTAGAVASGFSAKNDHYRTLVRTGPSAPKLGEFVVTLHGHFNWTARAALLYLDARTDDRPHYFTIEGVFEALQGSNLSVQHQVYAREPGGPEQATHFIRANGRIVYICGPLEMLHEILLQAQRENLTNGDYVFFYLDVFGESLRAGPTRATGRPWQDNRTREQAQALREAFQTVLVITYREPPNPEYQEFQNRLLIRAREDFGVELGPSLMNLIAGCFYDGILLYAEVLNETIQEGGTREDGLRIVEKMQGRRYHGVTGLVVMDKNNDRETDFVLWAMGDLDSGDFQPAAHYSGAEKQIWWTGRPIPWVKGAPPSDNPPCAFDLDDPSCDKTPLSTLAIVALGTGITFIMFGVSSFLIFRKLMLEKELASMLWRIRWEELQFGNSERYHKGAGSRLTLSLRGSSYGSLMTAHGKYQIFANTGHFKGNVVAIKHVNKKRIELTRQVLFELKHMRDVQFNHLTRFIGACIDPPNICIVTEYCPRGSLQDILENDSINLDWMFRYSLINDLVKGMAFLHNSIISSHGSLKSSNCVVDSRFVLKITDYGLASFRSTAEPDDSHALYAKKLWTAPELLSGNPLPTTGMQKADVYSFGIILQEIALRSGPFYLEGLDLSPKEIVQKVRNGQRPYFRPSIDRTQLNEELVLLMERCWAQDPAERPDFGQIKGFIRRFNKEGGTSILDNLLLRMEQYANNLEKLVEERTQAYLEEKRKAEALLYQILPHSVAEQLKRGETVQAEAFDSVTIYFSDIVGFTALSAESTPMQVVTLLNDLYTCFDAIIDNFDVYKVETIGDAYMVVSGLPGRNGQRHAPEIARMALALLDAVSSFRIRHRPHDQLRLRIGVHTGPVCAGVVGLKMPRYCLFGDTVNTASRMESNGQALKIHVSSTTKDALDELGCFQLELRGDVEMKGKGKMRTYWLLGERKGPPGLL

B1: JAL-1087 (peptide)
peptide: Octanoyl-XF[dR]L[Hyp][NMeL]DRI-NH2
modifications: not fully specified (some residues); printed as Occ-pip-Phe-arg-Leu-Hyp-Nml-Asp-Arg-Ile-NH2
B2: JAL-1078 (peptide)
peptide: Octanoyl-XF[dR]LP[NMeL]DRI-NH2
modifications: not fully specified (some residues); printed as Occ-pip-Phe-arg-Leu-Pro-Nml-Asp-Arg-Ile-NH2
B3: JAL-1077 (peptide)
peptide: Octanoyl-X[NMeF][dR]LP[NMeL]DRI-NH2
modifications: not fully specified (some residues); printed as Occ-pip-Nmf-arg-Leu-Pro-Nml-Asp-Arg-Ile-NH2

Biological target: T1, natriuretic peptide receptor-B
Assay: cell-based or functional assay
In the case of B1, the “EC50 group, cGMP in GTM-3 cells” value is reported as at most 1 µM.
With Octanoyl-[dA]F[dK]L[Hyp][NMeL]DRI-NH2 [JAL-1060] the “EC50 group, cGMP in GTM-3 cells” value was at most 1 µM.
Octanoyl-[dA]F[dK]LP[NMeL]ARI-NH2 [JAL-1068] was tested, and the “EC50 group, cGMP in GTM-3 cells” value was at most 15 µM.
In the case of Octanoyl-[dA][Phe(4-Cl)][dL]L[Hyp][NMeL]DRI-NH2 [JAL-1043], the “EC50 group, cGMP in GTM-3 cells” value is reported as at most 1 µM.
For Octanoyl-[dA]FGLP[Npl]DRI-NH2 [JAL-1045], the “EC50 group, cGMP in GTM-3 cells” value was at most 15 µM.
With Octanoyl-[dA]F[dF]L[Hyp]LDRI-NH2 [JAL-1028] the “EC50 group, cGMP in GTM-3 cells” value was at most 5 µM.
For Octanoyl-[dA]FGLPL[cDR]I-NH2 [JAL-1037], the “EC50 group, cGMP in GTM-3 cells” value was at most 15 µM.
For XXAFGLKLDRIS (Hex-Ebe-ala-Phe-Gly-Leu-Lys-Leu-Asp-Arg-Ile-Ser-NH2) [JAL-0540], the “EC50 group, cGMP in GTM-3 cells” value was at most 15 µM.
With Octanoyl-[dA]F[dL]LP[NMeL]DRI-NH2 [JAL-1039] the “EC50 group, cGMP in GTM-3 cells” value was at most 1 µM.
In the case of B2, the “EC50 group, cGMP in GTM-3 cells” value is reported as at most 1 µM.
For Octanoyl-[dA]F[dR]L[Hyp]LDRI-NH2 [JAL-1047], the “EC50 group, cGMP in GTM-3 cells” value was at most 1 µM.
Octanoyl-[dA][Phe(4-Cl)][dL]L[Hyp]LDRI-NH2 [JAL-1050] was tested, and the “EC50 group, cGMP in GTM-3 cells” value was at most 1 µM.
Octanoyl-[dA]F[ctb]L[Hyp]LDRI-NH2 [JAL-1029] was tested, and the “EC50 group, cGMP in GTM-3 cells” value was at most 5 µM.
In the case of Octanoyl-[dPip]FGLPLDRI-NH2 [JAL-1035], the “EC50 group, cGMP in GTM-3 cells” value is reported as at most 15 µM.
Ac-[dAoc(2)][dA][dA]FGLPLDRI-NH2 [JAL-1034] was tested, and the “EC50 group, cGMP in GTM-3 cells” value was at most 5 µM.
For Octanoyl-[dA]F[dR]L[Hyp][NMeL]DRI-NH2 [JAL-1086], the “EC50 group, cGMP in GTM-3 cells” value was at most 1 µM.
With Octanoyl-[dA][NMeF][dR]LP[NMeL]DRI-NH2 [JAL-1076] the “EC50 group, cGMP in GTM-3 cells” value was at most 5 µM.
With Octanoyl-[dA]F[dD]L[Hyp]LDRI-NH2 [JAL-1048] the “EC50 group, cGMP in GTM-3 cells” value was at most 15 µM.
In the case of Octanoyl-[dA]F[dK]LPLDRI-NH2 [JAL-1030], the “EC50 group, cGMP in GTM-3 cells” value is reported as at most 5 µM.
In the case of B3, the “EC50 group, cGMP in GTM-3 cells” value is reported as at most 1 µM.
In the case of Octanoyl-[dA]F[dOrn]L[Hyp][NMeL]DRI-NH2 [JAL-1061], the “EC50 group, cGMP in GTM-3 cells” value is reported as at most 1 µM.
In the case of Octanoyl-[dA]FGL[Bhp]LDRI-NH2 [JAL-1038], the “EC50 group, cGMP in GTM-3 cells” value is reported as at most 15 µM.
In the case of Octanoyl-[dA][NMeF][dL]L[Hyp]LDRI-NH2 [JAL-1052], the “EC50 group, cGMP in GTM-3 cells” value is reported as at most 1 µM.
For Octanoyl-[dPip]F[dL]L[Hyp]LDRI-NH2 [JAL-1054], the “EC50 group, cGMP in GTM-3 cells” value was at most 1 µM.
Octanoyl-[dP]F[dL]L[Hyp]LDRI-NH2 [JAL-1053] was tested, and the “EC50 group, cGMP in GTM-3 cells” value was at most 1 µM.
For Hexanoyl-G[dA]FGLKLDRISA-NH2 [JAL-0538], the “EC50 group, cGMP in GTM-3 cells” value was at most 5 µM.
Octanoyl-[dA]F[dR]LP[NMeL]DRI-NH2 [JAL-1075] was tested, and the “EC50 group, cGMP in GTM-3 cells” value was at most 5 µM.
Octanoyl-[dA]F[dK]LP[NMeL]DRI-NH2 [JAL-1065] was tested, and the “EC50 group, cGMP in GTM-3 cells” value was at most 5 µM.
Octanoyl-[dA]F[dR]LPLDRI-NH2 [JAL-1031] was tested, and the “EC50 group, cGMP in GTM-3 cells” value was at most 5 µM.
With Octanoyl-[Sni]F[dL]LP[NMeL]DRI-NH2 [JAL-1040] the “EC50 group, cGMP in GTM-3 cells” value was at most 1 µM.
In the case of Octanoyl-[dA]F[dH]LPLDRI-NH2 [JAL-1032], the “EC50 group, cGMP in GTM-3 cells” value is reported as at most 5 µM.
In the case of Hexanoyl-G[dA]FGLKLDRISG-NH2 [JAL-0539], the “EC50 group, cGMP in GTM-3 cells” value is reported as at most 5 µM.
In the case of Octanoyl-[dA]F[dNle]L[Hyp][NMeL]DRI-NH2 [JAL-1044], the “EC50 group, cGMP in GTM-3 cells” value is reported as at most 1 µM.
With Octanoyl-[Sni]F[dL]L[Hyp][NMeL]DRI-NH2 [JAL-1041] the “EC50 group, cGMP in GTM-3 cells” value was at most 1 µM.
With Ac-[Aoc(2)][dA][dA]FGLPLDRI-NH2 [JAL-1033] the “EC50 group, cGMP in GTM-3 cells” value was at most 5 µM.
With Octanoyl-[dA][NMeF][dR]L[Hyp][NMeL]DRI-NH2 [JAL-1085] the “EC50 group, cGMP in GTM-3 cells” value was at most 1 µM.
For Octanoyl-[dA][Phe(4-Me)][dL]L[Hyp]LDRI-NH2 [JAL-1051], the “EC50 group, cGMP in GTM-3 cells” value was at most 5 µM.
In the case of Octanoyl-[dA]F[dL]L[Hyp][NMeL]DRI-NH2 [JAL-1042], the “EC50 group, cGMP in GTM-3 cells” value is reported as at most 1 µM.
For Octanoyl-[dA]F[dNva]L[Hyp]LDRI-NH2 [JAL-1027], the “EC50 group, cGMP in GTM-3 cells” value was at most 5 µM.
